The source of these data is US20240383999A1 (University of Texas, published 2024).

Assay [1] concerns the target T1, Human recombinant CD5L protein (Sino Biological, Catalog Number 10791-H08H) (human, UniProt O43866 20-347).
T1 construct: Bought protein; also called human CD5L; CD5L-His; not shown: 6xHIS-tag
T1 sequence (looked up): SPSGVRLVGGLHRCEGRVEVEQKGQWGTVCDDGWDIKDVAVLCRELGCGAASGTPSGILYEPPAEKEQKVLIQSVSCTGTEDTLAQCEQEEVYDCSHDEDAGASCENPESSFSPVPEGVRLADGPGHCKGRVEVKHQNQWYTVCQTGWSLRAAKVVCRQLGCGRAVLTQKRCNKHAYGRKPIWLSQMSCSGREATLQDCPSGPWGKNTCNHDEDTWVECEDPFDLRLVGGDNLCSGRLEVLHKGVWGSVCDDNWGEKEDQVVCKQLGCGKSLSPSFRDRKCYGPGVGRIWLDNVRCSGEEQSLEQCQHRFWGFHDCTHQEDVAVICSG
Kind of assay: titration ELISA, human CD5L coated on plate. The protocol:
FIG. 11. […] Bound antibody was detected using a secondary antibody against rabbit IgG conjugated with HRP and TMB substrate for detection of A450 nm. EC₅₀ was estimated using GraphPad software by applying a 4-parameter fitting to calculate binding affinity of the antibodies.
Binding constants (EC₅₀) of a panel of monoclonal antibodies were estimated by titration ELISA, and the data were analyzed using the 4-parameter curve fitting with GraphPad Prism program (Table 6).

Assay [2] concerns the target T1, Human recombinant CD5L protein (Sino …). In words: BLI (Octet RED96), antibody on Protein A biosensors, CD5L-His in solution, global fit. How it is done:
Kinetic binding parameters (KD, kon, and koff) in (Table 11) were determined using Octet RED96 instrument and binding curves are shown in FIG. 17. […] KDs are calculated using Octet software with global fitting model.

B1: R-49 (antibody, V domains shown)
VH: QSVKESGGRLVTPGTPLTLTCTVSGFSLSINAINWVRQAPGKGLEWIGIITNIGNTYYASWAKGRFTISRTSTTVDLTMTSLTTEDTATYFCARNSYFDPWGPGTLVTISS
VL: ELVLTQTPSPVSAAVGGTVSISCQASQSVDSNNYCSWYQQKPGQPPKLLIHKASKLASGVPSRFKGSGSGTQFTLTINDLECDDAATYYCAGGLGDNIYAFGGGTEVEIN
For B1, in assay [1], the EC50 was determined as 0.0077 µg/mL.

B2: H-119 (antibody, V domains shown)
VH: EVQLVQSGAEVKKPGESLKISCKGSGYSFTSYWIGWVRQMPGKGLEWMGIIYPGDSDTRYSPSFQGQVTISADKSISTAYLQWSSLKASDTAMYYCARGLAASTRFDPWGQGTLVTVSS
VL: DVQMTQSPSSLSASVGDRVTITCRPSQSINNYLNWYQQKPGEAPKLLIYAASNLQSGVPSRFSGSGSGTDFTLTISSLQPEDFGTYYCQQSYSIPLTFGGGTTVEIK
In the case of B2, in assay [1], the 50% effective concentration (EC50) worked out at 0.0068 µg/mL.

B3: CD5L-35Hu-1 (antibody, V domains shown)
VH: QVQLVESGGGVVQPGRSLRLSCAASGIDLSDYYMTWVRQAPGKGLEYIGIIYASGNAYFASWAKGRFTISRDSSTNTLFLQMNSLRAEDTAVYYCARNIGGSSNLWGQGTLVTVSS
VL: AIQLTQSPSSLSASVGDRVTITCQASERIYNNLAWYQQKPGKAPKLLFYSASTLASGVPSRFSGSGSGTDFTLTISSLQPEDFATYYCQCTGYGTTYGLVFGGGTKVEIK
notes: also called humanized CD5L-35Hu mAb (CD5L-35Hu-H1 + CD5L-35Hu-K1)
In the case of B3, in assay [2], the Kd is below 1 pM, the off-rate constant (koff) is below 1e-07 s⁻¹ and the kon is 146000 M⁻¹ s⁻¹.

B4: CD5L-35Hu-2 (antibody, V domains shown)
VH: QVQLVESGGGVVQPGRSLRLSCAASGIDLSDYYMTWVRQAPGKGLEYIGIIYASGNAYFASWAKGRFTISRDSSTNTLFLQMNSLRAEDTAVYYCARNIGGSSNLWGQGTLVTVSS
VL: ELQLTQTPSSLSASVGDRVTIKCQASERIYNNLAWYQQKPGKAPKLLFYSASTLASGVPSRFSGSGSGTDFTLTISSLQPEDFATYYCQCTGYGTTYGLVFGGGTKVEIK
notes: also called humanized CD5L-35Hu mAb (CD5L-35Hu-H1 + CD5L-35Hu-K2)
Regarding B4, in assay [2], the Kd is below 1 pM, the off-rate constant (koff) was below 1e-07 s⁻¹ and the kon was found to be 125000 M⁻¹ s⁻¹.

B5: CD5L-35Hu-3 (antibody, V domains shown)
VH: QVQLVESGGGVVQPGRSLRLSCAASGIDLSDYYMTWVRQAPGKGLEYIGIIYASGNAYFASWAKGRFTISRDNSTNTVFLQMNSLRAEDTAVYYCARNIGGSSNLWGQGTLVTVSS
VL: AIQLTQSPSSLSASVGDRVTITCQASERIYNNLAWYQQKPGKAPKLLFYSASTLASGVPSRFSGSGSGTDFTLTISSLQPEDFATYYCQCTGYGTTYGLVFGGGTKVEIK
notes: also called humanized CD5L-35Hu mAb (CD5L-35Hu-H2 + CD5L-35Hu-K1)
Consider B5, for which, in assay [2], the Kd is below 1 pM, the off-rate constant (koff) is below 1e-07 s⁻¹ and the kon turned out to be 119000 M⁻¹ s⁻¹.

B6: R-5 (antibody, V domains shown)
VH: QSVKESGGRLVTPGTPLTLTCTVSGFSLSSYAMSWVRQAPGKGLEWIGVIDVTGRTYYASWAKGRFTISKTSTTVDLKITSPTTEDTATYFCGRDSYLDYGDPNGLDPWGPGTLVTISS
VL: ELVMTQTPASVEAAVGGTVTIKCQASQSIGSNLAWYQQKPGQPPKLLIYTASNLAPGVSSRFKGSRSGTESTLIISDLECADAATYYCQCTYYGTSYMELGAFGGGTELEIK
In the case of B6, the half-maximal effective concentration (EC50) in assay [1] was 0.148 µg/mL.

B7: R-4 (antibody, V domains shown)
VH: QSVEESGGRLVTPGTPLTLTCTASGFSLSSYYMTWVRQAPGKGLEYIGIISDRGSTYYASWAKGRFTIAKTSSTTVDLKLTSLTTEDTATYFCYRGVDGSGGYAAGDLWGQGTLVTISS
VL: ELVLTQTPASVEAAVGGTVTIKCQASEDIYSYFAWYQQKPGQRPRLLIYEASKVASGVPSRFKGGGSGTQFTLTISDLECADAATYYCQNNFYMIGDDYGGTFGGGTEVEIK
In the case of B7, in assay [1], the concentration giving a half-maximal response (EC50) is 0.0713 µg/mL.

B8: R-23 (antibody, V domains shown)
VH: QSVEESGGRLVMPGGSLTLTCTVSGIDLSSNTMGWFRQAPGKGLEWIGIMRGGGSTYYATWAKGRFTISKTSTTVDLKLTSPTTEDTATYFCARAFPGYNSFFNFWGQGTLVTISS
VL: ELDLTQTPASVSEPVGGTVTIKCQASHNINSALAWYQQKPGQPPKLLIYKASTLASGVPPRFKGSGSGTEFTLTISDLECADAATYYCQRHYFDGASADIAFGGGTEVVVK
With B8, in assay [1], the EC50 amounted to 0.14 µg/mL.

B9: R-21 (antibody, V domains shown)
VH: QSVEESGGRLVTPGTPLTLTCTVSGIDLSSYAINWVRQAPGEGLEWIGMISSSDNTYYANWAKGRFTISRDSTTVDLKITSPTTEDTATYFCARFYAGRSYSLWGQGTLVTISS
VL: ELDLTQTPASVSAAVGGTVTISCQSSESVYKSNYLSWYQQKAGQPPKLLIYAAATLASGVPSRFKGSGSGTQFTLTISGVQCDDAATYYCQGTYYSSGWYNAFGGGTEVVVK
Consider B9, for which the EC50 in assay [1] amounted to 0.21 µg/mL.

B10: R-1 (antibody, V domains shown)
VH: QSVEESGGRLVTPGTPLTLTCTVSGIDLSNYAINWVRQAPGKGLEWIGMISSGDVTYYASWAKGRFIISRTSSTTVDLKMTSPTIEDTATYFCARFFAGRSESLWGQGTLVTVSS
VL: ELDLTQTPSSVSAAVGGTVTINCQSSQSVNKNNYLSWYQQKPGQPPKLLIYSASALASGVSSRFSGSGSGTEFTLTISDVQCDDAATYYCQGTYYDSGWYNAFGGGTEVEIK
As for B10, the EC50 in assay [1] is 0.0598 µg/mL.

B11: R-11 (antibody, V domains shown)
VH: QSVKESGGDLVKPGASLTLTCTASGFDFSSNTMCWVRQAPGKGLEYIGYISYSGATHYASWAKGRFTISKTLSTTVTLQMTSLTDADTATYFCARDRGYVDGSYYGDFNLWGPGTLVTVSS
VL: ELVMTQTPSSASEPVGGTVTIKCQASQSIASRLAWFQQKPGQPPKLLIYRASTLESGVSSRFKGSGFGTEFTLTISDLECADAATYYCQSYYGSGYGKTFGGGTDVVVK
On to B11, for which the concentration giving a half-maximal response (EC50) in assay [1] is 0.0474 µg/mL.

B12: R-36 (antibody, V domains shown)
VH: QSVKESGGGLFQPGGSLALTCKASGFSLSKNYVMCWVRQAPGKGLEWIACIYAGDGNTYYVSWAKGRFTISKTSSTTVTLQMTSLTAADTATYFCARWDYIGNNNLWGPGTLVTISS
VL: ELVLTQTPASVEAAVGGTVTIKCQASQTISSYLAWYQQKPGQPPKLLIYRASTLASGVPSRFKGSGSGTQFTLTISDLECADGATYYCQCPYYGSSHVGAFGGGTEVVVK
For the molecule B12, in assay [1], the EC50 was 0.278 µg/mL.

B13: R-29 (antibody, V domains shown)
VH: QSVEESGGRLVTPGTPLTLTCTVSGFSLSSYAMNWVRQAPGKGLEWIGLIYASGTTHYASWVNGRFTISKTSTTVTLKMTSLTAADTATYFCARDSYSTGNLWGQGTLVTISS
VL: ELVLTQTPASVSEPVGGTVTIKCQASQSIYSSLVWYQQKPGQPPKLLIYGASNLESGVPSRFKGSGSGTEYTLTISGVQCADAATYYCQCSGYNSRVFGGGTEVEIK
As for B13, the concentration for a half-maximal effect (EC50) in assay [1] is 0.161 µg/mL.

B14: R-39 (antibody, V domains shown)
VH: QSLEESGGRLVTPGGSLTLTCTVSGIDLSSYTMGWVRQAPGKGLEWIGVIAINGGTVYASWAKGRFTISKTSTTVDLKMTSPTPEDTATYFCARGAGKTWSSFNLWGQGTLVTISS
VL: ELVLTQTPASVSEPVGGTVTIKCQASQSIGSNLAWYQQKPGQPPKLLIYRASTLESGVPSRFSGSGSGTEFTLTISDLECADAATYYCQSYYGSSTNAFGGGTEVVVK
Take B14: the EC50 in assay [1] amounted to 0.246 µg/mL.

B15: R-9 (antibody, V domains shown)
VH: QSVKESGGRLVTPGTPLTLTCTVSGFYLSTHGMTWVRQAPGKGLEYIGVIVTSGNTYYATWATGRFTISKTSTTVDLKITSPTTEDTATYFCARPGYKSVPLWGQGTLVTISS
VL: ELDLTQTPASVSAAVGGTVTINCQASEDIYSGLTWYQQKPGQPPKLLIYRASTLASGVPPRFKGSGSGTEFTLTISDLECDDAATYYCQNNYGSSSNNYVFAFGGGTEVEIK
On to B15, for which the EC50 in assay [1] came to 0.136 µg/mL.

B16: R-51 (antibody, V domains shown)
VH: QSVKESGGRLVTPGTPLTLTCTVSTIDVSKYAVIWVRQAPGKGLEYIGIISSSGSTYYASWAKGRFTISKTSSTTVDLKMTSPTAEDTATYFCARGGNGVAFKLWGQGTLVTISS
VL: ELDLTQTPASVEAAVGGTVTINCQASQSIYSSLAWYQQKPGQPPKLLIYETSKVESGVPSRFSGSGSGTQFTLTISDLECADAATYYCQSHDYISSSGMPFGGGTELEIL
Regarding B16, the EC50 in assay [1] was determined as 0.0144 µg/mL.

B17: R-6 (antibody, V domains shown)
VH: QSLEESGGRLVTPGTPLTLTCTVSTIDVSKYAVIWVRQAPGKGLEYIGIISSSGSTYYASWAKGRFTISKTSSTTVDLKMTSPTAEDTATYFCARGGNGVAFKLWGQGTLVTISS
VL: ELDMTQTPASVEAAVGGTVTINCQASESINDRLAWYQLKPGQPPKLLIYETSQVESGVPSRFSGSGSGTQFTLTISDLECADAATYYCQSHDYISSSGMPFGGGTEVVVK
Turning to B17, the EC50 in assay [1] is 0.187 µg/mL.

B18: R-10 (antibody, V domains shown)
VH: QSVKESGGRLVTPGTPLTLTCTLSGIDLSSYAMGWVRQAPGKGLEYIGIIGASGTTYYANWAKGRFTISRTSTTVDLKITSPTTEDTATYFCARAGYAGTGYPTRLDLWGQGTLVTISS
VL: ELDMTQTPASVEAAVGGTVTIKCQASQSISSSYLAWYQQKPGQPPKLLIYKASTLESGVPSRFSGSGSGTEFTLTISGVQCDDAATYYCLGGYFSFSNYDYGFGGGTEVEIK
For the molecule B18, the EC50 in assay [1] was 0.307 µg/mL.

A word on the EC50: it is the concentration giving half of the maximal effect. As a reminder, the Kd is the equilibrium constant for the complex coming apart. As a reminder, the koff is the first-order rate constant of dissociation. Broadly, the kon is a measure of how fast the partners come together.
